Assay results published in US20090232801A1 (ABBOT LABORATORIES, published 2009).
Positions count from the first letter of the chain named. Numbers in names are those of the source. Blank lines part the entries; values can stand above or below the binder they belong to.

Assays:
Aβ(1-42) globulomer [1] = biological target: T1, Aβ(1-42) globulomer (human); assay: dot blot densitometry; reference: Aβ(1-40) monomer
T1 construct: the definition mentions n=12-14 for late assembly forms; also called human A-beta oligomer antigen (1-42); Aβ(1-42) globular oligomer
T1 sequence (peptide, as listed by the source): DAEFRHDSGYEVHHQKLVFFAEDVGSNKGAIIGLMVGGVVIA
Method: (§1) The dot blot was developed with a development solution made from 1 tablet of NBT/BCIP (Roche) dissolved in 20 mL H₂O for 5 min. The development was stopped by intense washing of the dot blot with H₂O. Quantitative evaluation was done using a densitometric analysis (GS800 densitometer (BioRad) and software package Quantity one, Version 4.5.0 (BioRad)) of the dot-intensity. Only the dots for 10 pmol Aβ antigen were evaluated. Results for the Discrimination of Aβ Monomer Against Aβ Globulomer by Dot Blot Method: Comparison of 8F5hum8 Versus 4G8.
(§2) The humanized monoclonal antibody 8F5hum8 (0.2 μg/ml) were used for detection with an anti-human IgG coupled to alkaline phosphatase as secondary antibody and the staining reagent NBT/BCIP (Roche Diagnostics, Mannheim). The detection signal was analyzed in its intensity (reflective density=RD) via a densitometer (GS 800, Biorad, Hercules, Calif., USA) at an antigen concentration of 10 pmol. At this concentration for every Aβ-form, the measured reflective density was in the linear range of the densitometer detection.
(§3) Discrimination of anti-Aβ-antibodies of Aβ1-40 monomer and Aβ1-42 monomer. The discrimination was calculated as the ratio of detection signal of Aβ1-42 globulomer and Aβ1-42 monomer, respectively Aβ1-40 monomer.

Aβ(1-42) globulomer [2] = biological target: T1, Aβ(1-42) globulomer; assay: dot blot densitometry; reference: Aβ(1-42) monomer
Method: as §1, §2, §3

[3] = biological target: T2, Aβ(1-42) monomer, HFIP pretreated (human); assay: dot blot, 10 pmol antigen on nitrocellulose, 0.2 µg/ml antibody, densitometry
T2 construct: Human Aβ(1-42), Bachem H-1368, monomer preparation in Pluronic F68 buffer; also called Aβ42 monomer
Method: as §1, §2

Aβ(1-40) monomer = biological target: T3, Aβ(1-40) monomer (human); assay: as above
T3 construct: Human Aβ(1-40), Bachem H-1194, HFIP treated and dissolved in DMSO; also called Aβ40
T3 sequence (peptide, as listed by the source): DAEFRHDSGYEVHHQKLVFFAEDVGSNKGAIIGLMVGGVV
Method: as §1, §2

Aβ(1-42) globulomer [4] = biological target: T1, Aβ(1-42) globulomer; assay: as above
Method: as §1, §2

Aβ(1-42) globulomer [5] = biological target: T1, Aβ(1-42) globulomer; assay: competition ELISA, Expt. 2: unlabelled antibody against biotinylated Mu8F5 on coated human A-beta oligomer antigen (1-42)
Method: (§4) MaxiSorp ELISA plates (Nalge Nunc International) were coated overnight at 4° C. with 100 μl/well of 5.0 μg/ml human A-beta oligomer antigen (1-42) (Abbott Biosciences Corporation, Worcester, Mass.) in PBS, washed with Wash Buffer (PBS containing 0.1% Tween 20), and blocked for 1 hr at room temperature with 340 μl/well of SuperBlock Blocking Buffer in PBS (Pierce Chemical Company). After washing with Wash Buffer, a mixture of biotinylated Mu8F5 (1.0 μg/ml final concentration) and competitor antibody (Mu8F5 or Hu8F5 starting at 27 μg/ml final concentration and serially diluted 3-fold) in 100 μl/well of 5% Superblock Blocking Buffer in PBS was added in triplicate. As a no-competitor control, 100 μl/well of 5% Superblock Blocking Buffer in PBS was used. After incubating the plates for 2 hrs at room temperature, and washing with Wash Buffer, bound antibodies were detected using 100 μl/well of 1 μg/ml HRP-conjugated streptavidin (Pierce Chemical Company) in 5% Superblock Blocking Buffer in PBS. After incubating for 30 min at room temperature, and washing with Wash Buffer, color development was performed by adding 100 μl/well of ABTS Peroxidase Substrate/Peroxidase Solution B (KPL). […] Absorbance was read at 415 nm.
(§5) The affinity of Hu8F5 to human A-beta oligomer antigen (1-42) was analyzed by competition ELISA as described in Materials and Methods. […]

Aβ(1-42) globulomer [6] = biological target: T1, Aβ(1-42) globulomer; assay: competition ELISA, Expt. 3: unlabelled antibody against biotinylated Mu8F5 on coated human A-beta oligomer antigen (1-42)
Method: as §4, §5

Aβ(1-42) globulomer [7] = biological target: T1, Aβ(1-42) globulomer; assay: competition ELISA, Expt. 1: unlabelled antibody against biotinylated Mu8F5 (1.0 µg/ml) on coated human A-beta oligomer antigen (1-42)
Method: as §4, §5

Aβ(1-42) globulomer [8] = biological target: T1, Aβ(1-42) globulomer; assay: competition ELISA, average of 3 experiments: unlabelled antibody against biotinylated Mu8F5 on coated human A-beta oligomer antigen (1-42)
Method: as §4, §5

Aβ(1-42) globulomer [9] = biological target: T1, Aβ(1-42) globulomer; assay: competition ELISA, Expt. 1: competitor against biotinylated Mu8F5 on coated human A-beta oligomer antigen (1-42)
Method: as §4, §5

Aβ(1-42) globulomer [10] = biological target: T1, Aβ(1-42) globulomer; assay: competition ELISA, Expt. 2: competitor against biotinylated Mu8F5 on coated human A-beta oligomer antigen (1-42)
Method: as §4, §5

Aβ(1-42) globulomer [11] = biological target: T1, Aβ(1-42) globulomer; assay: competition ELISA, Expt. 3: competitor against biotinylated Mu8F5 on coated human A-beta oligomer antigen (1-42)
Method: as §4, §5

Aβ(1-42) globulomer [12] = biological target: T1, Aβ(1-42) globulomer; assay: competition ELISA, average of 3 experiments: competitor against biotinylated Mu8F5 on coated human A-beta oligomer antigen (1-42)
Method: as §4, §5

- Ratio RD Aβ(1-42) globulomer/RD Aβ(1-40) monomer (Aβ(1-42) globulomer [1]): 59
- Ratio RD Aβ(1-42) globulomer/RD Aβ(1-42) monomer (Aβ(1-42) globulomer [2]): 1.6
- Reflective Density (RD) [10 pmol] [3]: 1.3 RD
- Reflective Density (RD) [10 pmol] (Aβ(1-40) monomer): 0.04 RD
- Reflective Density (RD) [10 pmol] (Aβ(1-42) globulomer [4]): 2.2 RD
B1: humanized monoclonal antibody 8F5hum8 (antibody, V domains shown)
VH: EVQLVESGGGLVQPGGSLRLSCAASGFTFSSYGMSWVRQAPGKGLELVASINSNGGSTYYPDSVKGRFTISRDNAKNTLYLQMNSLRAEDTAVYYCASGDYWGQGTLVTVSS
VL: DIVMTQSPLSLPVTPGEPASISCRSSQSLVYSNGDTYLHWYLQKPGQSPKLLIYKVSNRFSGVPDRFSGSGSGTDFTLKISRVEAEDVGVYYCSQSTHVPWTFGGGTKVEIKR
notes: It was detected with anti-human IgG; also called humanized antibody 8F5; mMAb 8F5hum8

- IC50 (Aβ(1-42) globulomer [5]): 4.87 µg/mL
- IC50 (Aβ(1-42) globulomer [6]): 5.81 µg/mL
- IC50 (Aβ(1-42) globulomer [7]): 4.58 µg/mL
- IC50 (Aβ(1-42) globulomer [8]): 5.08 µg/mL
B2: murine monoclonal antibody 8F5 (antibody, V domains shown)
VH: EVQLVESGGGLVQPGGSLKLSCAASGFTFSSYGMSWVRQTPDKRLELVASINSNGGSTYYPDSVKGRFTISRDNAKNTLYLQMSSLKSEDTAMYYCASGDYWGQGSTLTVSS
VL: DVVMTQTPLSLPVSLGDQASISCRSSQSLVYSNGDTYLHWYLQKPGQSPKLLIYKVSNRFSGVPDRFSGSGSGTDFTLKISRVEAEDLGVYFCSQSTHVPWTFGGGTKLEIK
notes: Mouse monoclonal antibody; also called Mu8F5; mouse 8F5 antibody

- IC50 (Aβ(1-42) globulomer [9]): 6.28 µg/mL
- IC50 (Aβ(1-42) globulomer [10]): 6.85 µg/mL
- IC50 (Aβ(1-42) globulomer [11]): 5.93 µg/mL
- IC50 (Aβ(1-42) globulomer [12]): 6.36 µg/mL
B3: Hu8F5v1 (humanized 8F5, heavy chain version 1) (antibody, V domains shown)
VH: B1 VH with L47W
VL: B2 VL with V2I, T7S, S14T, L15P, D17E, Q18P, L88V, F92Y, L109V
notes: Human IgG1/kappa, expressed in 293T/17 cells from modified pVg1.D.Tt (gamma-1 changed to z, non-a allotype: D356E, L358M, EU index) and pVk; also called Hu8F5VHv1 + Hu8F5VL

- IC50 (Aβ(1-42) globulomer [9]): 6.29 µg/mL
- IC50 (Aβ(1-42) globulomer [10]): 8.12 µg/mL
- IC50 (Aβ(1-42) globulomer [11]): 6.56 µg/mL
- IC50 (Aβ(1-42) globulomer [12]): 6.99 µg/mL
B4: Hu8F5v2 (humanized 8F5, heavy chain version 2) (antibody, human IgG1, V domains shown)
VH: B1 VH
VL: B2 VL with V2I, T7S, S14T, L15P, D17E, Q18P, L88V, F92Y, L109V
notes: Human IgG1/kappa, as for Hu8F5v1; The heavy chain differs from version 1 by the additional mouse residue at position 47 (W47L mutation of the Hu8F5VH gene); also called Hu8F5VHv2 + Hu8F5VL
